Test results: article PMC6182161 (Nucleic Acids Research, 2018)

T1: Flag-NAT10 GE (UniProt Q9H0A0 1-1025, G641E)
T1 sequence (looked up): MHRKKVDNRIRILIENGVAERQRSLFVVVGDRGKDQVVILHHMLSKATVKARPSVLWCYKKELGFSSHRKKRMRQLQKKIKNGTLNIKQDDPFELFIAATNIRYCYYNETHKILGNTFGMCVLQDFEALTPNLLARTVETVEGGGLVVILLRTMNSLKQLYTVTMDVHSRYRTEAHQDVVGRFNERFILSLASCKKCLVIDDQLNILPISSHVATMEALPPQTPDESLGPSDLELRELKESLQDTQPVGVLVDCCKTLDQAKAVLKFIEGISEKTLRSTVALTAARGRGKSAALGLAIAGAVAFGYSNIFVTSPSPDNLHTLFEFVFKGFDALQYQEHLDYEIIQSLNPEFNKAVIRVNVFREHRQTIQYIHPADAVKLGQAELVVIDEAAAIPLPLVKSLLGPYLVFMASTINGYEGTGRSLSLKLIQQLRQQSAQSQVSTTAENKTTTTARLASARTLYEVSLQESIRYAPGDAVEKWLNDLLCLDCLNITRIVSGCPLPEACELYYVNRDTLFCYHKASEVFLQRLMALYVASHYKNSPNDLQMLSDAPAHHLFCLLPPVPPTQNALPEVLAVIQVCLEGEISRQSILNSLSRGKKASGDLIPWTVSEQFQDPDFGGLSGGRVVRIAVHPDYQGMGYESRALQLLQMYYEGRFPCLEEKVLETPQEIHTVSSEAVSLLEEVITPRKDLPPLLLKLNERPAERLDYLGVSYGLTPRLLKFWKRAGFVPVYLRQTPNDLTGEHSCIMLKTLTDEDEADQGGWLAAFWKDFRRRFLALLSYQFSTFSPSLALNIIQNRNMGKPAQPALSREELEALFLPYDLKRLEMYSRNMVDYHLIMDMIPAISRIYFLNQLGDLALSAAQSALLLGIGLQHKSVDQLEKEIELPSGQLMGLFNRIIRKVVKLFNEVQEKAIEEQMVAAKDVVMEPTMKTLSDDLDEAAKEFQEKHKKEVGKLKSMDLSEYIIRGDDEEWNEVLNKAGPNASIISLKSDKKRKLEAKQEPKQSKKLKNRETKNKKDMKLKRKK

T2: purified Flag-NAT10 (UniProt Q9H0A0 1-1025)
T2 sequence (looked up): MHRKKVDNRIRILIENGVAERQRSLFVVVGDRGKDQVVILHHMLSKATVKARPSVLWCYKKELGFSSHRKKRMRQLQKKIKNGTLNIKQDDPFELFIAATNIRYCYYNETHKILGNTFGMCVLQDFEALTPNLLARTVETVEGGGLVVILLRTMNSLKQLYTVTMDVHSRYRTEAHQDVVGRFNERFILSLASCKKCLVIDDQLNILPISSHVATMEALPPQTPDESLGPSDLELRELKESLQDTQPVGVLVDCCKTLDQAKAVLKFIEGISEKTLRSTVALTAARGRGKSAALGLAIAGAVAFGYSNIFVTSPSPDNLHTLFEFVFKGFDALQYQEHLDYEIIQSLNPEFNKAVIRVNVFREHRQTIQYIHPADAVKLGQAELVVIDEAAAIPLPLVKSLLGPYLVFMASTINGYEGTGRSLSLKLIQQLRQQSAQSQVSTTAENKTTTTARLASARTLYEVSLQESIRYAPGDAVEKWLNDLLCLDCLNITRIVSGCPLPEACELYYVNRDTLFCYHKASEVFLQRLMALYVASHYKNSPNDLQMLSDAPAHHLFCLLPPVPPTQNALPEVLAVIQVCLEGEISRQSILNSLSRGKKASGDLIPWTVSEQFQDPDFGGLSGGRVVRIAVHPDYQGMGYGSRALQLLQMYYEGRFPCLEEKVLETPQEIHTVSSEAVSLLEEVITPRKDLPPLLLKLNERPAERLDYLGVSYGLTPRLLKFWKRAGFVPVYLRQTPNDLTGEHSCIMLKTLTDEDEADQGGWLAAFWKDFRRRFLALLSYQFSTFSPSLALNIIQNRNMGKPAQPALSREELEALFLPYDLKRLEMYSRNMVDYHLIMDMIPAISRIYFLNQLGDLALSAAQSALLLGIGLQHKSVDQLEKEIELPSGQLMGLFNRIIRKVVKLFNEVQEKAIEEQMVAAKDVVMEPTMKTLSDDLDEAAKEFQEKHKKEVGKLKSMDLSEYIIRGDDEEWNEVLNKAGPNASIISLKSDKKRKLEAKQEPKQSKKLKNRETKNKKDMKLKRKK


Legend:
Flag-NAT10 GE = molecular target: T1, Flag-NAT10 GE; experiment: pull-down
purified Flag-NAT10 = molecular target: T2, purified Flag-NAT10; experiment: pull-down

binding result (Flag-NAT10 GE)	binding result (purified Flag-NAT10)	Binder
	binds	GST-Sirt1 (enzyme, UniProt Q96EB6 1-747, looked up) MADEAALALQPGGSPSAAGADREAASSPAGEPLRKRPRRDGPGLERSPGEPGGAAPEREVPAAARGCPGAAAAALWREAEAEAAAAGGEQEAQATAAAGEGDNGPGLQGPSREPPLADNLYDEDDDDEGEEEEEAAAAAIGYRDNLLFGDEIITNGFHSCESDEEDRASHASSSDWTPRPRIGPYTFVQQHLMIGTDPRTILKDLLPETIPPPELDDMTLWQIVINILSEPPKRKKRKDINTIEDAVKLLQECKKIIVLTGAGVSVSCGIPDFRSRDGIYARLAVDFPDLPDPQAMFDIEYFRKDPRPFFKFAKEIYPGQFQPSLCHKFIALSDKEGKLLRNYTQNIDTLEQVAGIQRIIQCHGSFATASCLICKYKVDCEAVRGDIFNQVVPRCPRCPADEPLAIMKPEIVFFGENLPEQFHRAMKYDKDEVDLLIVIGSSLKVRPVALIPSSIPHEVPQILINREPLPHLHFDVELLGDCDVIINELCHRLGGEYAKLCCNPVKLSEITEKPPRTQKELAYLSELPPTPLHVSEDSSSPERTSPPDSSVIVTLLDQAAKSNDDLDVSESKGCMEEKPQEVQTSRNVESIAEQMENPDLKNVGSSTGEKNERTSVAGTVRKCWPNRVAKEQISRRLDGNQYLFLPPNRYIFHGAEVYSDSEDDVLSSSSCGSNSDSGTCQSPSLEEPMEDESEIEEFYNGLEDEPDVPERAGGAGFGTDGDDQEAINEAISVKQEVTDMNYPSNKS
	binds	GST-Che-1-N (domain or fragment, UniProt Q9NY61 1-124, looked up) MAGPQPLALQLEQLLNPRPSEADPEADPEEATAARVIDRFDEGEDGEGDFLVVGSIRKLASASLLDTDKRYCGKTTSRKAWNEDHWEQTLPGSSDEEISDEEGSGDEDSEGLGLEEYDEDDLGA

The next lines start with the binder.

Binder	binding result (Flag-NAT10 GE)	binding result (purified Flag-NAT10)
GST-Che-1 (natural protein, UniProt Q9NY61 1-560, looked up) MAGPQPLALQLEQLLNPRPSEADPEADPEEATAARVIDRFDEGEDGEGDFLVVGSIRKLASASLLDTDKRYCGKTTSRKAWNEDHWEQTLPGSSDEEISDEEGSGDEDSEGLGLEEYDEDDLGAAEEQECGDHRESKKSRSHSAKTPGFSVQSISDFEKFTKGMDDLGSSEEEEDEESGMEEGDDAEDSQGESEEDRAGDRNSEDDGVVMTFSSVKVSEEVEKGRAVKNQIALWDQLLEGRIKLQKALLTTNQLPQPDVFPLFKDKGGPEFSSALKNSHKALKALLRSLVGLQEELLFQYPDTRYLVDGTKPNAGSEEISSEDDELVEEKKQQRRRVPAKRKLEMEDYPSFMAKRFADFTVYRNRTLQKWHDKTKLASGKLGKGFGAFERSILTQIDHILMDKERLLRRTQTKRSVYRVLGKPEPAAQPVPESLPGEPEILPQAPANAHLKDLDEEIFDDDDFYHQLLRELIERKTSSLDPNDQVAMGRQWLAIQKLRSKIHKKVDRKASKGRKLRFHVLSKLLSFMAPIDHTTMNDDARTELYRSLFGQLHPPDEGHGD	binds	binds
GST-Che-1-M (domain or fragment, UniProt Q9NY61 125-246, looked up) AEEQECGDHRESKKSRSHSAKTPGFSVQSISDFEKFTKGMDDLGSSEEEEDEESGMEEGDDAEDSQGESEEDRAGDRNSEDDGVVMTFSSVKVSEEVEKGRAVKNQIALWDQLLEGRIKLQK		binds
